Laboratory results reported in patent publication US20240034762A1 (YALE UNIVERSITY, published 2024).

T1: soluble extracellular domain of human α-Klotho (aa 1-980) fused to a 6xHis tag (human, UniProt Q9UEF7 34-980)
T1 construct: Secreted from HEK293 EBNA cells; also called sKLA; soluble α-Klotho
T1 sequence: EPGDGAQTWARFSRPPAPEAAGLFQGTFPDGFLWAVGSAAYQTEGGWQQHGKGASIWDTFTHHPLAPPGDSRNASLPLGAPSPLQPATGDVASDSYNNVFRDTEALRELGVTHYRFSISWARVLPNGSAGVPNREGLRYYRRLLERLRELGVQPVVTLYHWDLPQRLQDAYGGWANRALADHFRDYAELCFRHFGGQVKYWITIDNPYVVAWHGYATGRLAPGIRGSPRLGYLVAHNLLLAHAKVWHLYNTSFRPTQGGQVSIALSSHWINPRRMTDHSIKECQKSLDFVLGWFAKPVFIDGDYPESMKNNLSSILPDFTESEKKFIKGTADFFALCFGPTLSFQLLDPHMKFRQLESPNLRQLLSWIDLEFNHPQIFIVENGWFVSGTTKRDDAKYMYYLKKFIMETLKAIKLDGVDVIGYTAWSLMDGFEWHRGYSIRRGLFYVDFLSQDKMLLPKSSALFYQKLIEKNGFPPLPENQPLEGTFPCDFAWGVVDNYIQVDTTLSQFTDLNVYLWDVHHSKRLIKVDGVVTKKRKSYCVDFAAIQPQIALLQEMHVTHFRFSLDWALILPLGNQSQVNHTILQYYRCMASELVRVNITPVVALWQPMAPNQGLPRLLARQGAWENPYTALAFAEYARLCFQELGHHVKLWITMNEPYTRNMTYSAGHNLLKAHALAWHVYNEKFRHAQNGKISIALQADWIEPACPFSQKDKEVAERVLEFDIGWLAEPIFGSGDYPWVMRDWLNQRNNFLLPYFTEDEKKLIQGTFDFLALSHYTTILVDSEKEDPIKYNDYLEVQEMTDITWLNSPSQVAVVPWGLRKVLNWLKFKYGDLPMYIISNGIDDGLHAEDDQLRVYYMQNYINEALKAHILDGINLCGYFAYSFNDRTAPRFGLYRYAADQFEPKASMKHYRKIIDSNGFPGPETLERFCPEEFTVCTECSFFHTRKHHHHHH

T2: full-length human α-Klotho with a C-terminal HA-tag on HEK293 cells stably co-expressing FGFR1c (human, UniProt Q9UEF7 34-1012)
T2 sequence: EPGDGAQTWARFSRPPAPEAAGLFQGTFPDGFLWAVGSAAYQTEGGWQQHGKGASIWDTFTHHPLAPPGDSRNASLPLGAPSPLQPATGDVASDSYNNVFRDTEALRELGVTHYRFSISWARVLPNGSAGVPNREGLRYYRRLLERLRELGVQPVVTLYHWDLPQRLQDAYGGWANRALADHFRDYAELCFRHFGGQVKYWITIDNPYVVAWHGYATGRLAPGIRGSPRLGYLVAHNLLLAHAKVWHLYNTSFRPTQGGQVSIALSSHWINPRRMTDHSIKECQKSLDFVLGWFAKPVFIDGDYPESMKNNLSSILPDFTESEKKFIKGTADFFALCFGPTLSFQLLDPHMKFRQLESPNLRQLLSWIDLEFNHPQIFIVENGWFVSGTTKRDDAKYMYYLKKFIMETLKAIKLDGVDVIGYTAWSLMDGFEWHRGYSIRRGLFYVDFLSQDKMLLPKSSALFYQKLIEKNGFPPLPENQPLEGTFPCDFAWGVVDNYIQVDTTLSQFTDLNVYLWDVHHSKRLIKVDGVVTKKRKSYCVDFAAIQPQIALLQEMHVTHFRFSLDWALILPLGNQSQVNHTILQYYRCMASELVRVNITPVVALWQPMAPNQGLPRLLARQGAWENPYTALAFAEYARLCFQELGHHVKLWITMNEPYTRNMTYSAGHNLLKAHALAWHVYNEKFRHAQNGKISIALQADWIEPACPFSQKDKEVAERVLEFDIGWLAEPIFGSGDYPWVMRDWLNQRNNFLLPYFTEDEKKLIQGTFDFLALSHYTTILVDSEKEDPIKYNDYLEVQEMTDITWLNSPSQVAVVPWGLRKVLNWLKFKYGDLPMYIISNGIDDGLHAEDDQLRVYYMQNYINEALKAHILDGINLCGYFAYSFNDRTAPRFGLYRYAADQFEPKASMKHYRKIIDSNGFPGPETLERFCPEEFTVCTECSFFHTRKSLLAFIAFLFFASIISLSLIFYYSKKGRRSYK

T3: full-length human α-Klotho with a C-terminal HA-tag on HEK293 cells stably co-expressing FGFR1c (human) (UniProt Q9UEF7)
T3 sequence: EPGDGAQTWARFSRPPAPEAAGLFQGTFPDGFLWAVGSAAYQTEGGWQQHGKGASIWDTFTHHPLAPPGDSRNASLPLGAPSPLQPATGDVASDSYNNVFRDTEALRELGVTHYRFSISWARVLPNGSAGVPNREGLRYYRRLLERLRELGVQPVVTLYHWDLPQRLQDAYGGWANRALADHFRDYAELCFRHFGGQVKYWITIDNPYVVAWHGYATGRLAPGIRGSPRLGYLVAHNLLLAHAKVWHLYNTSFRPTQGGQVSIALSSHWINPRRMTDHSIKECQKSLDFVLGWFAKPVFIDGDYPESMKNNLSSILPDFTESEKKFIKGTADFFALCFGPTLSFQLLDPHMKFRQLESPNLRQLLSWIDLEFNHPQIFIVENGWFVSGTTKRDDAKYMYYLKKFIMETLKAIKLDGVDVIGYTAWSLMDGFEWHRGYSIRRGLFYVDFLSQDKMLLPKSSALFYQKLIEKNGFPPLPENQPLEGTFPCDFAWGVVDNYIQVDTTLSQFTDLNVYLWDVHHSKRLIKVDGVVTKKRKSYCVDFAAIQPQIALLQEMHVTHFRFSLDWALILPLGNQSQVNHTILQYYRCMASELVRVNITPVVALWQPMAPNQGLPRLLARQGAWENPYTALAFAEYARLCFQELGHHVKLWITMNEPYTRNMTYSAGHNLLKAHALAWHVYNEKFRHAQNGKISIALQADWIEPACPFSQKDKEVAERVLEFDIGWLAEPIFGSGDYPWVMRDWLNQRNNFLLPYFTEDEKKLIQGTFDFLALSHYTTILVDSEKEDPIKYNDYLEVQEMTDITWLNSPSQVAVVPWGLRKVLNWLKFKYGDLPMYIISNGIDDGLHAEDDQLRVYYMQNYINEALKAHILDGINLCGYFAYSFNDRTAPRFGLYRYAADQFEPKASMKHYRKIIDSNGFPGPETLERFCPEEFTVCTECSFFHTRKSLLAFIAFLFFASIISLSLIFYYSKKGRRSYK


How the values were obtained:
[1] = target: T1, soluble extracellular domain of human …; assay: BLI; FLAG-tagged FGF23 captured by anti-FLAG M2 on anti-mouse Fc sensors, sKLA 6.25-200 nM as analyte, 1:1 fit
Procedure: FIG. 10A: BLI sensorgrams of binding of FGF23-WT, FGF23-CS, FGF23 D188A, and FGF23-CS D188A to sKLA. Biosensors coated with anti-mouse-Fc antibody was used to immobilize anti-Flag antibody followed by capturing Flag-tagged FGF23-WT or FGF23-CS. Biosensors were then dipped into solutions containing a series of concentrations of sKLA (200, 100, 50, 25, 12.5, and 6.25 nM). The resulting sensorgrams were fitted with a 1:1 ligand:receptor binding model to calculate kinetic parameters and dissociation constants. FIGS. 10B-10C: HEK293 cells stably expressing FGFR1c together with α-Klotho were left unstimulated or stimulated with increasing concentrations of FGF23-WT or FGF23-CS mutant, as indicated, for 10 minutes at 37° C. Cell lysates were subjected to SDS-PAGE and analyzed for serine phosphorylation of FGFR1, tyrosine phosphorylation of FRS2 and for MAPK activation by immunoblotting with anti-FGFR1-pS, anti-pFRS2 and anti-pMAPK antibodies, respectively and with anti-MAPK as a control. FIG. 10D: Schematic diagram depicting the bivalency of the C-terminal tail of FGF23 binding to α-Klotho.
(§1) Kinetic parameters and dissociation constants of sKLA binding to the various forms of full length FGF23 or GST-fused C-terminal fragments of FGF23 were studied using Bio-Layer Interferometry (BLI). Octet RED96 system (Pall ForteBio) equipped with anti-mouse IgG Fc (AMC) biosensors was used to study interactions between α-Klotho and FLAG-tagged FGF23. Biosensor tips were loaded with anti-FLAG M2 antibody (Millipore Sigma) at 5 μg/ml for 2 min, washed in BLI buffer (25 mM HEPES, 150 mM NaCl, pH 7.5, 0.002% Tween-20, 1 mg/mL BSA) for 60 s, and then loaded with FLAG-tagged FGF23 at 5 μg/ml for 4 min. Alternatively, anti-GST biosensor tips were loaded with 5 ug/ml GST fused with various FGF23 C-terminal fragments for 15 s. Subsequently, ligand-loaded sensor tips were dipped into microplate wells containing different sKLA concentrations, ranging from 6.25 nM to 200 nM in 2-fold dilutions of BLI buffer. After each binding cycle the sensor tips were regenerated with 10 mM glycine (pH 1.5). The collected data were referenced using a parallel buffer control subtraction, and sensograms were fitted globally to a 1:1 Langmuir binding model using ForteBio Data Analysis 10.0 software provided by the manufacturer.

[2] = target: T2, full-length human α-Klotho with a …; assay: cell-based or functional assay
[3] = target: T3, full-length human α-Klotho with a C-terminal HA-tag on HEK293 cells stably co-expressing FGFR1c (human); assay: cell-based or functional assay
[4] = target: T1, soluble extracellular domain of human …; assay: BLI (Octet); GST fusion captured on anti-GST biosensor, sKLA in solution at 6.25-200 nM, 1:1 fit, mean ± S.D. of 3 experiments
Procedure: as §1
To examine the significance of each of the two FGF23 repeats in α-Klotho binding and receptor activation, bio-layer interferometry (BLI) analyses was applied to measure the kinetic parameters and dissociation constants of each repeat alone or the entire C-terminal tail of FGF23 towards sKLA. To that end, GST-fusion proteins expressing either full length (FL) tail of FGF23 (amino acids […]), the first repeat R1 (amino acids S180-S205), or the second repeat R2 (amino acids […]) were produced in E. coli (FIG. 6) and immobilized on BLI sensors. sKLA was produced in HEK293 EBNA cells and used as an analyte in the BLI measurements (see elsewhere herein).

Kd [1] [nM]	koff [1] [s⁻¹]	kon [1] [M⁻¹ s⁻¹]	Binder	further results
18	0.0044	250000	FLAG-tagged human FGF23 C206S/C244S/D188A mutant expressed in Expi293F cells (ligand, also called FGF23-CS D188A) DYKDDDDKYPNASPLLGSSWGGLIHLYTATARNSYHLQIHKNGHVDGAPHQTIYSALMIRSEDAGFVVITGVMSRRYLCMDFRGNIFGSHYFDPENCRFQHQTLENGYDVYHSPQYHFLVSLGAAKAAFLPGMNPPPYSQFLSRRNEIPLIHFNTPIPRQHTQSAEDDSERAPLNVLKPRARMTPAPASSSQELPSAEDNSPMASDPLGVVRGGRVNTHAGGTGPEGSRPFAKFI	–
18	0.0042	230000	FLAG-tagged human FGF23 C206S/C244S mutant expressed in Expi293F cells (ligand, O-linked glycosylation (sites not given), also called FGF23-CS; mFGF23-CS) DYKDDDDKYPNASPLLGSSWGGLIHLYTATARNSYHLQIHKNGHVDGAPHQTIYSALMIRSEDAGFVVITGVMSRRYLCMDFRGNIFGSHYFDPENCRFQHQTLENGYDVYHSPQYHFLVSLGAAKAAFLPGMNPPPYSQFLSRRNEIPLIHFNTPIPRQHTQSAEDDSERDPLNVLKPRARMTPAPASSSQELPSAEDNSPMASDPLGVVRGGRVNTHAGGTGPEGSRPFAKFI	–
14	0.0034	260000	FLAG-tagged human FGF23 (aa 25-251) expressed in Expi293F cells (ligand, O-linked glycosylation (sites not given); Cys206-Cys244 disulfide bridge, also called FGF23-WT; mFGF23-WT) DYKDDDDKYPNASPLLGSSWGGLIHLYTATARNSYHLQIHKNGHVDGAPHQTIYSALMIRSEDAGFVVITGVMSRRYLCMDFRGNIFGSHYFDPENCRFQHQTLENGYDVYHSPQYHFLVSLGAAKAAFLPGMNPPPYSQFLSRRNEIPLIHFNTPIPRQHTQSAEDDSERDPLNVLKPRARMTPAPASCSQELPSAEDNSPMASDPLGVVRGGRVNTHAGGTGPEGCRPFAKFI	–
–	–	–	full length human FGF23 (aa 25-251) expressed in E. coli (ligand) YPNASPLLGSSWGGLIHLYTATARNSYHLQIHKNGHVDGAPHQTIYSALMIRSEDAGFVVITGVMSRRYLCMDFRGNIFGSHYFDPENCRFQHQTLENGYDVYHSPQYHFLVSLGAAKAAFLPGMNPPPYSQFLSRRNEIPLIHFNTPIPRQHTQSAEDDSERDPLNVLKPRARMTPAPASCSQELPSAEDNSPMASDPLGVVRGGRVNTHAGGTGPEGCRPFAKFI	activation of MAPK response in HEK293 cells co-expressing FGFR1c and α-Klotho; ligand concentration at saturation [2]: 0.1 nM
–	–	–	human IgG1 Fc fused to the full-length C-terminal tail of human FGF23 (aa 180-251) (Fc fusion, not shown: a dimerising Fc or GST) SAEDDSERDPLNVLKPRARMTPAPASCSQELPSAEDNSPMASDPLGVVRGGRVNTHAGGTGPEGCRPFAKFI	complete inhibition of FGF23-induced MAPK stimulation in HEK293 cells co-expressing α-Klotho and FGFR1c [3]: 100 to 250 nM
–	–	–	GST fusion of the full-length C-terminal tail of human FGF23 (aa 180-251) (other, Expressed in E. coli BL21-Gold (DE3); also called GST-FL; FL tail of FGF23; not shown: glutathione S-transferase encoded by the pGEX4T1 vector (GE Healthcare)) SAEDDSERDPLNVLKPRARMTPAPASCSQELPSAEDNSPMASDPLGVVRGGRVNTHAGGTGPEGCRPFAKFI	Kd [4]: 15 nM; koff [4]: 0.0031 s⁻¹; kon [4]: 210000 M⁻¹ s⁻¹
